Laboratory results reported in patent US20180155451A1 (published 2018).

T1: FcγRIIb (human, UniProt P31994 43-217)
T1 construct: extracellular domain; also called FcgRIIb; 2b
T1 sequence (looked up): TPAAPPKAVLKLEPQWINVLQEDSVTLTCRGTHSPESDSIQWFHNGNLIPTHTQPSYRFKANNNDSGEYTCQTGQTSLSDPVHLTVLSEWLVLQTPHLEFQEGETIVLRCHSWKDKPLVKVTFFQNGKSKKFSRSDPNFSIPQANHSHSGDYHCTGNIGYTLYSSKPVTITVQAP

B1: GpH7-A5/GpH7-B3 variant S298_11K/GpL16-k0 (antibody, human IgG1, kappa)
heavy 1: not shown
heavy 2: not shown
light: DIVMTQSPLSLPVTPGEPASISCQASESLVHSNRNTYLHWYLQKPGQSPQLLIYKVSNRFSGVPDRFSGSGSGTDFTLKISRVEAEDVGVYYCSQNTHVPPTFGQGTKVEIERTVAAPSVFIFPPSDEQLKSGTASVVCLLNNFYPREAKVQWKVDNALQSGNSQESVTEQDSKDSTYSLSSTLTLSKADYEKHKVYACEVTHQGLSSPVTKSFNRGEC
notes: heterodimerized IgG1, one H chain mutated; also called He Ab
B2: GpH7-A5/GpH7-B3 variant S298_12R/GpL16-k0 (antibody, human IgG1, kappa)
heavy 1: not shown
heavy 2: not shown
light: B1 light
notes: as for B1
B3: GpH7-A5/GpH7-B3 variant S298_19Q/GpL16-k0 (antibody, human IgG1, kappa)
heavy 1: not shown
heavy 2: not shown
light: B1 light
notes: as for B1
B4: GpH7-A5/GpH7-B3 variant S324_02A/GpL16-k0 (antibody, human IgG1, kappa)
heavy 1: not shown
heavy 2: not shown
light: B1 light
notes: as for B1
B5: GpH7-A5/GpH7-B3 variant S324_09D/GpL16-k0 (antibody, human IgG1, kappa)
heavy 1: not shown
heavy 2: not shown
light: B1 light
notes: as for B1
B6: GpH7-A5/GpH7-B3 variant S298_16H/GpL16-k0 (antibody, human IgG1, kappa)
heavy 1: not shown
heavy 2: not shown
light: B1 light
notes: as for B1
B7: GpH7-A5/GpH7-B3 variant S298_14T/GpL16-k0 (antibody, human IgG1, kappa)
heavy 1: not shown
heavy 2: not shown
light: B1 light
notes: as for B1
B8: GpH7-A5/GpH7-B3 variant S324_15Y/GpL16-k0 (antibody, human IgG1, kappa)
heavy 1: not shown
heavy 2: not shown
light: B1 light
notes: as for B1
B9: GpH7-A5/GpH7-B3 variant S324_14T/GpL16-k0 (antibody, human IgG1, kappa)
heavy 1: not shown
heavy 2: not shown
light: B1 light
notes: as for B1
B10: GpH7-A5/GpH7-B3 variant S324_10E/GpL16-k0 (antibody, human IgG1, kappa)
heavy 1: not shown
heavy 2: not shown
light: B1 light
notes: as for B1
B11: GpH7-A5/GpH7-B3 variant S324_12R/GpL16-k0 (antibody, human IgG1, kappa)
heavy 1: not shown
heavy 2: not shown
light: B1 light
notes: as for B1
B12: GpH7-A5/GpH7-B3 variant S298_18N/GpL16-k0 (antibody, human IgG1, kappa)
heavy 1: not shown
heavy 2: not shown
light: B1 light
notes: as for B1
B13: GpH7-A5/GpH7-B3 variant S324_01G/GpL16-k0 (antibody, human IgG1, kappa)
heavy 1: not shown
heavy 2: not shown
light: B1 light
notes: as for B1
B14: GpH7-A5/GpH7-B3 variant S298_20W/GpL16-k0 (antibody, human IgG1, kappa)
heavy 1: not shown
heavy 2: not shown
light: B1 light
notes: as for B1
B15: GpH7-A5/GpH7-B3 variant S324_11K/GpL16-k0 (antibody, human IgG1, kappa)
heavy 1: not shown
heavy 2: not shown
light: B1 light
notes: as for B1
B16: GpH7-A5/GpH7-B3 variant S298_15Y/GpL16-k0 (antibody, human IgG1, kappa)
heavy 1: not shown
heavy 2: not shown
light: B1 light
notes: as for B1

target: T2, FcγRIa (human, UniProt P12314 16-292); assay: SPR (Biacore); He/Con_1a (FcgRIa) divided by He/Con_2b (FcgRIIb)
T2 construct: extracellular domain; also called FcgRI; FcgRIa
Description: (§1) The heterodimerized antibodies He Abs in which one of the H chains was introduced with an alteration were assayed for their binding activities to each activating FcγR and inhibitory FcγR according to the method described in Example 4. […] The activating FcγRs in FIGS. 26, 27, 28, and 29 are FcγRIa, FcγRIIa (R), FcγRIIa (H), and FcγRIIIa, respectively.
(§2) Analysis of interaction between objective antibody and the FcγR was carried out using Biacore T100 (GE Healthcare). HBS-EP+ (GE Healthcare) was used as the running buffer, and the measurement temperature was set to 25° C. Chips produced by immobilizing the antigen peptide by the amine coupling method to a Series S Sencor Chip CM5 (GE Healthcare), or alternatively, chips produced by allowing preliminarily biotinylated antigen peptides to interact with and immobilize onto a Series S Sensor Chip SA (certified) (GE Healthcare) were used. Antibodies of interest were captured onto an antigen peptide-immobilized chip, and allowed to interact to each FcγR diluted with running buffer. To regenerate and repeatedly use the chip, the antibodies captured on the chip were washed off by reacting 10 mM glycine-HCl, pH 1.5.

T2 sequence (P12314 16-292): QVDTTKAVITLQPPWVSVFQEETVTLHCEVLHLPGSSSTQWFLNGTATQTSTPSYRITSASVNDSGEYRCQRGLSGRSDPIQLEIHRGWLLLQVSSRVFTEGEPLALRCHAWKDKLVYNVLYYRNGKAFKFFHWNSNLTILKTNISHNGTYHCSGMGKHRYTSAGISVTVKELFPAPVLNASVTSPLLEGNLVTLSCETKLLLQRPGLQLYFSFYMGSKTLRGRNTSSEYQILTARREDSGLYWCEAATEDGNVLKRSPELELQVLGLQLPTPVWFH

Ia/IIb He_1a/2b	Binder
1.78	B1
1.89	B2
1.49	B3
1.31	B4
1.21	B5
1.71	B6
1.37	B7
1.29	B8
1.37	B9
1.35	B10
1.61	B11
2.25	B12
1.22	B13
2.53	B14
1.49	B15
1.75	B16

target: T1, FcγRIIb; assay: SPR (Biacore), relative to GpH7-A5/GpH7-B3/GpL16-k0 = 100
Description: as §1, §2

He/Con_2b (IIb binding)	Binder
61.3 relative (control = 100)	B1
57.8 relative (control = 100)	B2
73.3 relative (control = 100)	B3
78.3 relative (control = 100)	B4
85.8 relative (control = 100)	B5
63.5 relative (control = 100)	B6
77.9 relative (control = 100)	B7
88.2 relative (control = 100)	B8
88.4 relative (control = 100)	B9
77.4 relative (control = 100)	B10
63.1 relative (control = 100)	B11
48.1 relative (control = 100)	B12
81.1 relative (control = 100)	B13
41.1 relative (control = 100)	B14
68.6 relative (control = 100)	B15
61.4 relative (control = 100)	B16

target: T2, FcγRIa; assay: as above
Description: as §1, §2

He/Con_1a (Ia binding)	Binder
109 relative (control = 100)	B1
109 relative (control = 100)	B2
109 relative (control = 100)	B3
103 relative (control = 100)	B4
104 relative (control = 100)	B5
109 relative (control = 100)	B6
107 relative (control = 100)	B7
114 relative (control = 100)	B8
121 relative (control = 100)	B9
105 relative (control = 100)	B10
102 relative (control = 100)	B11
108 relative (control = 100)	B12
98.8 relative (control = 100)	B13
104 relative (control = 100)	B14
102 relative (control = 100)	B15
107 relative (control = 100)	B16
